T1: Biotinylated Human TREM2 Protein,His,Avitag (TR2-H82E7, ACRObiosystems) (human, UniProt Q9NZC2 19-174, biotinylated (Avitag))
T1 construct: Bought protein; also called huTREM2,Biotin,His,Avitag; Biotinylated human TREM2 protein with a streptavidin tag; not shown: His tag and Avitag
T1 sequence (looked up): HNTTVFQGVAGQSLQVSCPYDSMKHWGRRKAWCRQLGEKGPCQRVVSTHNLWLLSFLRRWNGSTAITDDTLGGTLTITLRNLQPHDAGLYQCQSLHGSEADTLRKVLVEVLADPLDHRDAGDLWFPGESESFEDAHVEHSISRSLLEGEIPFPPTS

B1: construct 7 (anti-TREM2 CAR comprising a TREM2 scFv) (other)
chain: QVQLQQSGPGLVKPSQTLSLTCAISGDSVSSSSAAWNWIRQSPSRGLEWLGHIGYRSKWYNEYAVSVKSRITINPDTSKNQFSLQLNSVTPEDTAVYYCARGMYGSVPYKEGYYFDIWGQGTLVTVSSGGGGSGGGGSGGGGSDIQMTQSPSSLSASVGDRVTITCRASQGISSDLNWYQQKPGKAPKLLIYAASNLQSGVPSRFSGSGSGTDFTLTISSLQPEDFATYYCQQYTDESMTFGQGTKVEIKLRVFSSVVPVLQKVNSTTTKPVLRTPSPVHPTGTSQPQRPEDCRPRGSVKGTGLDFACDIYIWAPLAGICVALLLSLIITLICYHRQLWTNSRRNRLLQSDYMNMTPRRPGLTRKPYQPYAPARDFAAYRPRAKFSRSAETAANLQDPNQLYNELNLGRREEYDVLEKKRARDPEMGGKQQRRRNPQEGVYNALQKDKMAEAYSEIGTKGERRRGKGHDGLYQGLSTATKDTYDALHMQTLAPR
notes: Chimeric antigen receptor with an anti-TREM2 scFv, expressed on the surface of Jurkat NFAT cells or murine Tregs after retroviral transduction; the construct also encodes GFP
B2: construct 8 (anti-TREM2 CAR comprising a TREM2 scFv) (other)
chain: QVQLVQSGAEVKKPGASVKVSCKASGYTFTGYHMSWVRQAPGQGLEWMGVINPVSGNTVYAQKFQGRVTMTRDTSISTAYMELSRLRSEDTAVYYCARIPSYTYAFDYWGQGTLVTVSSGGGGSGGGGSGGGGSDIQMTQSPSSLSASVGDRVTITCRASQDISNYLAWYQQKPGKAPKLLIYRASSLQSGVPSRFSGSGSGTDFTLTISSLQPEDFATYYCQQHGHSPTTFGQGTKVEIKLRVFSSVVPVLQKVNSTTTKPVLRTPSPVHPTGTSQPQRPEDCRPRGSVKGTGLDFACDIYIWAPLAGICVALLLSLIITLICYHRQLWTNSRRNRLLQSDYMNMTPRRPGLTRKPYQPYAPARDFAAYRPRAKFSRSAETAANLQDPNQLYNELNLGRREEYDVLEKKRARDPEMGGKQQRRRNPQEGVYNALQKDKMAEAYSEIGTKGERRRGKGHDGLYQGLSTATKDTYDALHMQTLAPR
notes: the construct also encodes GFP
B3: construct 10 (anti-TREM2 CAR comprising a TREM2 scFv) (other)
chain: EVQLLESGGGLVQPGGSLRLSCAASGFTFSNYYMAWVRQAPGKGLEWVSSLTNSGGSTYYADSVKGRFTISRDNSKNTLYLQMNSLRAEDTAVYYCTREWAGSGYFDYWGQGTLVTVSSGGGGSGGGGSGGGGSDIQMTQSPSSLSASVGDRVTMTCKASQNVGNNLAWYQQKPGKAPKLLLYYTSNRFTGVPSRFSGSGSGTDFTLTISSVQPEDFATYYCQRIYNSPWTFGQGTKLELKLRVFSSVVPVLQKVNSTTTKPVLRTPSPVHPTGTSQPQRPEDCRPRGSVKGTGLDFACDIYIWAPLAGICVALLLSLIITLICYHRQLWTNSRRNRLLQSDYMNMTPRRPGLTRKPYQPYAPARDFAAYRPRAKFSRSAETAANLQDPNQLYNELNLGRREEYDVLEKKRARDPEMGGKQQRRRNPQEGVYNALQKDKMAEAYSEIGTKGERRRGKGHDGLYQGLSTATKDTYDALHMQTLAPR
notes: as for B1
B4: construct 3 (anti-TREM2 CAR comprising a TREM2 scFv) (other)
chain: EVQLVQSGAEVKKPGESLKISCKGSGYTFTSYWIGWVRQMPGKGLEWMGIIYPGDSDTRYSPSFQGQVTISVDKSSSTAYLQWSSLKASDTAIYYCTRQAIAVTGLGGFDPWGQGTLVTVSSGGGGSGGGGSGGGGSEIVLTQSPGTLSLSPGERATLSCRASQSVSSSYLAWYQQKPGQAPRLLIYGASSRATGIPDRFSGSGSGTDFTLTISRLEPEDFALYYCQQYDTSPFTFGPGTKVDIKLRVFSSVVPVLQKVNSTTTKPVLRTPSPVHPTGTSQPQRPEDCRPRGSVKGTGLDFACDIYIWAPLAGICVALLLSLIITLICYHRQLWTNSRRNRLLQSDYMNMTPRRPGLTRKPYQPYAPARDFAAYRPRAKFSRSAETAANLQDPNQLYNELNLGRREEYDVLEKKRARDPEMGGKQQRRRNPQEGVYNALQKDKMAEAYSEIGTKGERRRGKGHDGLYQGLSTATKDTYDALHMQTLAPR
notes: as for B1

From patent US20240390422A1 (QUELL THERAPEUTICS, published 2024) come the findings set out here.

For this assay, the target named is T1, Biotinylated Human TREM2 …. Kind of assay: flow cytometry: CAR-transduced Jurkat NFAT cells stained with Biotinylated Human TREM2 Protein and Streptavidin APC; also sorted with the protein and streptavidin beads. An excerpt:
Constructs 3, 7, 8 and 10 are all constructs of the present invention, which comprise a CAR comprising a TREM2 scFv. Non-transduced cells (mock) and transduced cells were collected and stained for flow cytometry using Biotinylated Human TREM2 Protein (TR2-H82E7 ACRObiosystems) and Streptavidin APC as a secondary antibody. Cells were sorted using Streptavidin magnetic beads, columns (miltenyi) and Biotinylated Human TREM2 Protein (TR2-H82E7 ACRObiosystems).
On day 4 after transduction, Jurkat NFAT cells were stained for surface expression of the anti-TREM2 CARs using Biotinylated Human TREM2 Protein (TR2-H82E7 ACRObiosystems) and Streptavidin-APC as a secondary antibody. On day 7, CAR expressing cells were selected using Streptavidin magnetic beads (Streptavidin MicroBeads, 130-048-101, Miltenyi), columns (Miltenyi) and Biotinylated Human TREM2 Protein (TR2-H82E7 ACRObiosystems) and then used for subsequent activation assays.
For the molecule B1, the binding result was “binds”.
Next, B2: “binds”; B3: “binds”.
In the case of B4 it was “binds”.
